Publication PMC10764798, “A natural biogenic nanozyme for scavenging superoxide radicals” (Nature Communications, 2024)

B1: DNA protection protein from Sulfolobus solfataricus (natural protein, UniProt P95855 1-188, looked up)
chain: MQEKPQEPKVVGVEILEKSGLDIKKLVDKLVKATAAEFTTYYYYTILRMHLTGMEGEGLKEIAEDARLEDRLHFELMTQRIYELGGGLPRDIRQLADISACSDAYLPENWKDPKEILKVLLEAEQCAIRTWKEVCDMTYGKDPRTYDLAQRILQEEIEHEAWFLELLYGRPSGHFRRSSPGNAPYSKK
notes: Carries an inorganic iron core; also called ssDps; S. solfataricus Dps; source: E. coli BL21(DE3), pet22b, ferrous salt added to the medium (biomineralized), purified; copies: 12
B2: Bacterioferritin from Escherichia coli str. K-12 substr. MG1655 (natural protein)
chain: not shown
notes: Carries an inorganic iron core; also called EcBfr; Bfr; source: E. coli BL21(DE3), pet22b, ferrous salt added to the medium (biomineralized), purified; copies: 24
B3: Non-heme ferritin from Enterobacteriaceae (E. coli FTn) (natural protein, UniProt P0A998 1-165, looked up)
chain: MLKPEMIEKLNEQMNLELYSSLLYQQMSAWCSYHTFEGAAAFLRRHAQEEMTHMQRLFDYLTDTGNLPRINTVESPFAEYSSLDELFQETYKHEQLITQKINELAHAAMTNQDYPTFNFLQWYVSEQHEEEKLFKSIIDKLSLAGKSGEGLYFIDKELSTLDTQN
notes: Carries an inorganic iron core; also called EcFTn; source: E. coli BL21(DE3), pet22b, ferrous salt added to the medium (biomineralized), purified; copies: 24

Molecular target: the molecule itself
Assay: negative-stain TEM and DLS; purified biomineralized ferritin, 0.1 mg/mL; stained with 1% uranyl acetate, JEM-1400 80 kV TEM; DLS at 25 °C; assembly of the subunits into the protein cage

Binding result, binds:
B1
B2
B3
